From US8536121B2, “Methods and reagents for the diagnosis, prevention and treatment of insulin resistance using beta-arrestin2 and its up-regulators” (Shanghai Institutes for Biological Sciences, CAS, priority 2008, dated 2013)

Columns and labels:
[1] = test system: Akt; assay: Insulin-stimulated Akt phosphorylation in Hep3B hepatocytes treated with inhibitors (immunoblot); assay type: cell-based, human; settings: 10 μM PP2 or 100 nM Wortmannin for 30 min, then 100 nM insulin
Description: (§1) FIG. 4A, Activation of PI3K by insulin in livers of βarr2-ko mice (n=6), βarr2-tg mice (n=6) and their wild type littermates (n=6). Mice were injected with either saline or insulin (1 U·kg^−1) for 10 min. PI3K were immuno-purified from liver extracts and PI3K activity were measured by ELISA. Data are presented as mean ±s.e.m. *P<0.05, **P<0.005, versus control. FIG. 4B, FIG. 4C, Activation of Akt and downstream targets by insulin in livers of βarr2-ko mice (n=6) (FIG. 4B), βarr2-tg mice (n=6) (FIG. 4C) and their wild type littermates (n=6). Liver protein extracts prepared as in A were used for immunoblot analysis of pAkt, pFoxol, and pGSK3. […] FIG. 4E, Src-dependent activation of Akt. Hep3B hepatocytes were treated with or without 10 μM Src inhibitor PP2 or 100 nM PI3K inhibitor Wortmanin for 30 min, and then stimulated by 100 nM insulin. Phosphorylation levels of Akt at serine/threonine or tyrosine (n=6) were shown. […]
(§2) After mouse is sacrificed, mouse tissues are quickly excised and frozen in liquid nitrogen. Tissue lysate is prepared and protein concentration is determined by Bradford method. […] For immunoblotting, protein bands, emitting infrared fluorescence through excitation of IRDye800CW conjugated secondary antibody, are obtained by Odyssey infrared imaging system, followed by using Scion Image software (Li-Cor Bioscience, Lincoln, Nebr., USA) to perform quantitative analysis. […]

[2] = test system: PI3K; assay: PI3K activity (ELISA) in liver of mice injected with insulin; assay type: in vivo, mouse; settings: insulin 1 U·kg^−1 for 10 min; wild type, βarr2-ko and βarr2-tg mice
Description: as §1, with “shown. FIG. 4F, Tyrosine phosphorylation of Akt induced by insulin in livers of βarr2-ko mice (n=6), βarr2-tg mice (n=6) and their wild type littermates (n=6). Akt immuno-purified from protein extracts made in FIG. 4B and FIG. 4C was subjected to immunoblot using antibodies against phosphorylated tyrosine. All mice were 8-weeks old fed with a regular diet. Data are presented as mean ±s.e.m. *P<0.05, **P<0.005, versus control.” for “shown.”

[3] = test system: Akt; assay: Akt phosphorylation in liver of mice injected with insulin (immunoblot); assay type: in vivo, mouse
Description: as §1, §2

[4] = test system: Akt/βarrestin2/Src complex; assay: Akt/βarrestin2/Src complex formation in liver of C57BL/6 mice injected with insulin (immunoprecipitation); assay type: in vivo, mouse; settings: C57BL/6 mice livers, intraperitoneal insulin 1 U·kg^−1, time-dependent
Description: (§3) C57BL/6 mice (n=6) were injected with 1 U·kg^−1 insulin for the indicated times, and liver protein extracts were prepared for immunoprecipitation using anti-Akt antibodies. […] Liver protein extracts prepared as described in a were subjected to immunoprecipitation for IRβ. […] Liver protein extracts prepared from βarr2-ko (n=6), βarr2-tg (n=6), their wild type littermates (n=6) as described were subjected to immunoprecipitation for IRβ. Akt and Src associated with IRβ were detected on immunoblots. […] Hep3B hepatocytes overexpressing HA-βarrestin2 186-409 or βGal were subjected for immunoblot analysis of pAkt, pFoxol, and pGSK3. All mice were 8-weeks old fed with a regular diet.
as §2, with “method. For immunoprecipitation, add relevant antibodies to cell lysate, incubate at 4° C. overnight, add protein A or protein G agarose beads, incubate at 4° C. for 2 h.” for “method.”

[5] = test system: wild type littermates and βarr2-ko mice; assay: Insulin tolerance tests (ITTs); assay type: in vivo, mouse; settings: intraperitoneal 1 U·kg^−1 insulin
Description: (§4) For GTTs, mice are injected intraperitoneal with glucose after starvation for 6 hours. Blood glucose is measure at indicated time points. Mice are injected intraperitoneally under fed conditions for ITTs. Blood are collected and determined the glycemia using a glucometer (Roche Accu-chek). Serum insulin levels are measured using rat/mouse ELISA kit.

[6] = test system: db/db diabetic mice; assay: Adenovirus injection into db/db diabetic mice (blood glucose, GTTs, ITTs, body weight, food intake, liver βarrestin2); assay type: in vivo, mouse; settings: adenovirus encoding mutant, vs βGal
Description: (§5) βarr1-ko and βarr2-ko mice are provided by Dr. Robert J. Lefkowitz (Duke University Medical Center, Durham, N.C.). βarr1-tg and βarr2-tg mice are generated as described (Shi, Y., et al., “Critical regulation of CD4+ T cell survival and autoimmunity by beta-arrestin 1,” Nature Immunol., 8, 817-24 (2007)). All other mice are from Shanghai Laboratory Animal Center, Chinese Academy of Sciences. Animal experiments are performed in accordance with the National Institutes of Heath Guide for the Care and Use of Laboratory Animals. Mice are fed with a regular diet (Formulab 5008, Labdiet 5053) or high-fat diet (55% fat calories) (Harlan-Teklad 93075) and have free access to water and diet. Adenovirus (7×10^9 viral particle/100 μl saline) is injected into the tail vein of db/db mice and C57BL/6 to specifically target the liver. Body weight and food intake are measured as described in: Netea, M. G., et al., “Deficiency of interleukin-18 in mice leads to hyperphagia, obesity and insulin resistance,” Nature Medicine, 12, 650-6 (2006).
as §4, with “kit. […]” for “kit.”

[7] = test system: C57BL/6 mice; assay: Adenovirus encoding βarrestin2 mutants injected into C57BL/6 mice (blood glucose, GTTs, ITTs); assay type: in vivo, mouse; settings: for insulin tolerance in ITTs: 1 U·kg^−1, 7 days after adenovirus injection; for glucose tolerance in GTTs: 1 g·kg^−1, 7 days after adenovirus injection; for blood glucose levels: adenovirus, all time points, vs control mice
Excerpt: C57BL/6 mice were 8 -weeks old fed on regular diet (RD). Data are presented as mean ±s.e.m. *P<0.05, **P<0.005, versus control.
as §5, §4
The CsCl purified adenovirus are used as a saline solution (7×10^9 virus particles per […]) and injected through tail vein.

[8] = test system: Akt/Src complex; assay: Akt/Src interaction in Hep3B hepatocytes overexpressing βarrestin2 mutant (anti-Akt immunoprecipitation); assay type: cell-based, human; settings: overexpressed in Hep3B hepatocytes, vs βGal
Excerpt: (§6) FIG. 5B, Interaction of Akt and Src in liver of wild type littermates but not βarr2-ko mice. Liver protein extracts from βarr2-ko mice (n=6) and their wild type littermates (n=6) were used for immunoprecipitation by anti-Akt or anti-Src antibodies. FIG. 5C, Enhanced interaction of Akt and Src in liver of βarr2-tg mice. Liver protein extracts from βarr2-tg mice (n=6) and their wild type littermates (n=6) were used for immunoprecipitation by anti-Akt or anti-Src antibodies. […] HA-βarrestin2 that co-immunoprecipitated from Hep3B hepatocytes overexpressing Akt or Src without or with HA-βarrestin2, HA-βarrestin2 1-185 was shown on immunoblots using anti-HA antibodies (n=3). FIG. 5F, Hep3B hepatocytes overexpressing HA-βarrestin2 1-185 or βGal were subjected to immunoprecipitation using anti-Akt antibodies. Akt, Src in the immunopurified complex were shown on immunoblots (n=3). […]
as §2

[9] = test system: Akt; assay: Insulin-stimulated pAkt, pFoxo1, pGSK3 in Hep3B hepatocytes overexpressing βarrestin2 mutants (immunoblot); assay type: cell-based, human; settings: overexpressed in Hep3B hepatocytes, vs βGal
Excerpt: FIG. 5B, Interaction of Akt and Src in liver of wild type littermates but not βarr2-ko mice. Liver protein extracts from βarr2-ko mice (n=6) and their wild type littermates (n=6) were used for immunoprecipitation by anti-Akt or anti-Src antibodies. FIG. 5C, Enhanced interaction of Akt and Src in liver of βarr2-tg mice. Liver protein extracts from βarr2-tg mice (n=6) and their wild type littermates (n=6) were used for immunoprecipitation by anti-Akt or anti-Src antibodies. […] HA-βarrestin2 that co-immunoprecipitated from Hep3B hepatocytes overexpressing Akt or Src without or with HA-βarrestin2, HA-βarrestin2 1-185 was shown on immunoblots using anti-HA antibodies (n=3). FIG. 5F, Hep3B hepatocytes overexpressing HA-βarrestin2 1-185 or βGal were subjected to immunoprecipitation using anti-Akt antibodies. Akt, Src in the immunopurified complex were shown on immunoblots (n=3). […] Hep3B hepatocytes overexpressing HA-βarrestin2 1-185 or βGal were stimulated by insulin and then subjected to immunoblot analysis of pAkt, pFoxol, and pGSK3. All mice were 8-weeks old fed with a regular diet.
as §3
(§7) After mouse is sacrificed, mouse tissues are quickly excised and frozen in liquid nitrogen. Tissue lysate is prepared and protein concentration is determined by Bradford method. For immunoprecipitation, add relevant antibodies to cell lysate, incubate at 4° C. overnight, add protein A or protein G agarose beads, incubate at 4° C. for 2 h. Proteins that bind protein A or protein G agarose beads are washed in SDS sample buffer and treated at 50° C. for 20 min followed by SDS-PAGE separation and through immunoblotting method to determine relevant proteins. For immunoblotting, protein bands, emitting infrared fluorescence through excitation of IRDye800CW conjugated secondary antibody, are obtained by Odyssey infrared imaging system, followed by using Scion Image software (Li-Cor Bioscience, Lincoln, Nebr., USA) to perform quantitative analysis. […]

[10] = biological target: T1, Src (Homo sapiens, UniProt P12931); assay: Co-immunoprecipitation of βarrestin2 truncation mutants with Src in Hep3B hepatocytes; assay type: binding; settings: HA-tagged mutant
T1 construct: Full length of Akt and Src are cloned into modified pcDNA3 vector in-frame with HA or Flag at the N-terminus; expressed in transfected cells; host or cells: Hep3B
Excerpt: as §6, with “(n=3).” for “(n=3). FIG. 5F, Hep3B hepatocytes overexpressing HA-βarrestin2 1-185 or βGal were subjected to immunoprecipitation using anti-Akt antibodies. Akt, Src in the immunopurified complex were shown on immunoblots (n=3).”
(§8) C57BL/6 mice (n=6) were injected with 1 U·kg^−1 insulin for the indicated times, and liver protein extracts were prepared for immunoprecipitation using anti-Akt antibodies. […] Akt and Src associated with IRβ were detected on immunoblots. […]
as §2

[11] = test system: Akt; assay: Co-immunoprecipitation of βarrestin2 truncation mutants with Akt in Hep3B hepatocytes; assay type: binding, human; settings: HA-tagged mutant
Excerpt: as §6, with “(n=3).” for “(n=3). FIG. 5F, Hep3B hepatocytes overexpressing HA-βarrestin2 1-185 or βGal were subjected to immunoprecipitation using anti-Akt antibodies. Akt, Src in the immunopurified complex were shown on immunoblots (n=3).”
as §8, §2

[12] = biological target: T2, IRβ (Homo sapiens, UniProt P06213); assay: Co-immunoprecipitation of βarrestin2 truncation mutants with IRβ in Hep3B hepatocytes; assay type: binding; settings: HA-tagged mutant
T2 construct: IR immunoprecipitated from Hep3B hepatocytes; endogenous in cells; host or cells: Hep3B
Description: as §3
as §7, with “Proteins that bind protein A or protein G agarose beads are washed in SDS sample buffer and treated at 50° C. for 20 min followed by SDS-PAGE separation and through immunoblotting method to determine relevant proteins.” left out

Molecule | insulin resistance [6] | insulin tolerance in ITTs [7] | glucose tolerance in GTTs [7] | blood glucose levels [7] | insulin-stimulated phosphorylation (activation) of Akt [9] | interaction with Src [10] | interaction with Akt [11] | also measured
CC(C)(C)n1nc(-c2ccc(Cl)cc2)c2c(N)ncnc21 [PP2] |  |  |  |  |  |  |  | serine/threonine phosphorylation of Akt [1]: remarkably reduced; tyrosine phosphorylation of Akt [1]: remarkably reduced
insulin: insulin injected into mice or added to cells as stimulus |  |  |  |  |  |  |  | increase in PI3K activity in liver [2]: ~3 fold; increase in tyrosine phosphorylation of Akt ([3]; liver of wild type mice, insulin stimulation): ~2 fold; increase in the phosphorylation of Akt at Thr308 or Ser473 in liver ([3]; wild type mice, insulin 1 U·kg^−1 for 10 min): ~3 fold; Akt/Src interactions [4]: marked increase; Akt/βarrestin2 association [4]: marked increase; blood glucose in ITTs [5]: time-dependent reduction
βarrestin2 1-185: truncated form of βarrestin2 containing amino acids 1-185, dominant negative mutant; overexpressed in Hep3B or delivered by adenovirus (protein, left off: small tags and cut ends, overexpressed in Hep3B or delivered by adenovirus) MGEKPGTRVFKKSSPNCKLTVYLGKRDFVDHLDKVDPVDGVVLVDPDYLKDRKVFVTLTCAFRYGREDLDVLGLSFRKDLFIATYQAFPPVPNPPRPPTRLQDRLLRKLGQHAHPFFFTIPQNLPCSVTLQPGPEDTGKACGVDFEIRAFCAKSLEEKSHKRNSVRLVIRKVQFAPEKPGPQPSA | aggravates | impair | impair | higher | markedly reduced | interacts with Src | not Akt | Akt/Src interactions [8]: inhibits; insulin-stimulated phosphorylation of Foxo1 [9]: markedly reduced; insulin-stimulated phosphorylation of GSK3 [9]: markedly reduced
βarrestin2 186-409: truncated mutant of βarrestin2 that interacts with IR but not Akt or Src; overexpressed in Hep3B or delivered by adenovirus (protein, left off: small tags and cut ends, overexpressed in Hep3B or delivered by adenovirus) ETTRHFLMSDRSLHLEASLDKELYYHGEPLNVNVHVTNNSTKTVKKIKVSVRQYADICLFSTAQYKCPVAQLEQDDQVSPSSTFCKVYTITPLLSDNREKRGLALDGKLKHEDTNLASSTIVKEGANKEVLGILVSYRVKVKLVVSRGGDVSVELPFVLMHPKPHDHIPLPRPQSAAPETDVPVDTNLIEFDTNYATDDDIVFEDFARLRLKGMKDDDYDDQLC | aggravates | impair | impair | higher | suppresses | not Akt or Src | not Akt or Src | interaction with IRβ [12]: interacts with IRβ
